Reference: PMC8056383

Target: 23C-176C double-cysteine mutant of full-length ClpB, labelled with Alexa Fluor 488 and Alexa Fluor 594 (Thermus thermophilus) (UniProt Q9RA63)
Sequence (Q9RA63 whole entry R23C/D176C): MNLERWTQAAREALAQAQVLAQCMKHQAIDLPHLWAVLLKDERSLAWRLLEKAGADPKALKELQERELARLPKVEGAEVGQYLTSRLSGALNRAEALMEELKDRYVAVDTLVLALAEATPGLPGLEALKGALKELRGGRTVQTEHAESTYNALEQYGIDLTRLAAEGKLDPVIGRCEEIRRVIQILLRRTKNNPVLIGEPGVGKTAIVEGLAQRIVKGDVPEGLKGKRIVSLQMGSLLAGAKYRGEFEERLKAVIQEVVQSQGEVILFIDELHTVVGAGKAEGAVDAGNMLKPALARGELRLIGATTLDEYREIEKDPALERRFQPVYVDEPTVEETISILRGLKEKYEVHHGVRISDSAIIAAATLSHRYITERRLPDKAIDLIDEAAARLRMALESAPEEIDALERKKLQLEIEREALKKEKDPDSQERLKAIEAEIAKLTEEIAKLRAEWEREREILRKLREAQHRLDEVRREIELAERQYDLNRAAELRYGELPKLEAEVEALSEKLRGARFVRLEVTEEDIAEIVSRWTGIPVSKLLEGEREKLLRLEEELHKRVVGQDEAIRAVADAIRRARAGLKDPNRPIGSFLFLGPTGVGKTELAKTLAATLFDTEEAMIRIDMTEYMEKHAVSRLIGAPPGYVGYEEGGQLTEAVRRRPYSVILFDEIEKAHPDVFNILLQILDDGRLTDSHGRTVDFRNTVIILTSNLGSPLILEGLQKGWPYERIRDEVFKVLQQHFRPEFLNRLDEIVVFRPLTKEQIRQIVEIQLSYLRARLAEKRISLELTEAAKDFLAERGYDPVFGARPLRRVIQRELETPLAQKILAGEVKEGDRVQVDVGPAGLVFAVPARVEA

ATPase activity of fully labeled 23C-176C ClpB with 25 μM κ-casein relative to basal: 3.1 fold
Substance: κ-casein (from UniProt P02668 22-190) (natural protein)
